The source of these data is a protein production outcome set (Wang et al. 2014).

This data set is described as follows: label from the status in PepcDB records.
For “MATEPEAAEPVVPSLVDRYFTRWYKPDVKGKFCEDHCILQHSNRICVITLAESHPVLQSGKTIKSISYQISTNCSRLQNKVSGKFKRGAQFLTELAPLCKIYCSDGEEYTVSSCVRGRLMEVNENILHKPSILQEKPSTEGYIAVVLPKFEESKSITEGLLTQKQYEEVMVKRINATTATS”, the protein production result was “failed”.

Turning to “MPTALGYVSIGLACGIIGAPYVTPVEMGLMSLFVYAGSAQFAMLALIVVQAPVAAIAMTVFLINLRLFLLSLHASTYFRHTSLWYNIGMSSILTDETYGVLMGELAHTDKVNPMWMHGNNLNSYVAWFVGTVVGTALGGLLPNPEIFGLDFALVGMFIGIFASQFQIMQRRIPVRNLLIILAVVAVSFFLLLTVMSQSLAVLFATLLGCSMGVVLDGQ”, the protein production result was “failed”.

For the sequence “MKDVIVIGAGPSGSFAAYRLAKAGFTVDILEEHREVGKPVECTGLVSQRVLKYVRTKSIAGTVRGANIFFPNGKSVHIEKDDPTIVLFRDAFDKDVAAMAIGAGSGIRINARALSVTEHDDHVTVRYRENGSIKEEDARIVIGADGINSVVRRDVYGMRQKHVVSTLQYDMASGIEDEDSVNVYLGSQYTHGFFGWAVPGGDIVRVGTGSYKASARPYMDNLSRRFGDNRTLGITGAGIPIRMAERLSSRRTVLVGDAGGIVKPLSGGGIYTGIFSSDVAANYVVEALESDSSEASLRKYDREIRNTIGKELKKDAMIQRIYSRISDRSFNRIYSMISNEKIIDVINRSGDIDYPSTVIIKVLLRNPGILYSMWKLEHHHHHH”, the protein production entry was “failed”.

For the sequence “MHGHGGYDSDFSDDEHCGESSKRKKRTVEDDLLLQKPFQKEKHGKVAHKQVAAELLDREEARNRRFHLIAMDAYQRHRKFVNDYILYYGGKKEDFKRLGENDKTDLDVIRENHRFLWNEEDEMDMTWEKRLAKKYYDKLFKEYCIADLSKYKENKFGFRWRVEKEVISGKGQFFCGNKYCDKKEGLKSWEVNFGYIEHGEKRNALVKLRLCQECSIKLNFHHRRKEIKSKKRKDKTKKDCEESSHKKSRLSSAEEASKKKDKGHSSSKKSEDSLLRNSDEEESASESELWKGPLPETDEKSQEEEFDEYFQDLFL”, the protein production result was “not failed”.

Turning to “MKRKKLSIFILSAAIVTSSVSYGMTAKADEVKETKGYNYNVNLSEQKAVANNKISVKKVNGEILGYANPFTMLQILNMNGKTVEVITQSGLRGYVDANEFTLVESAVNDKLIEKNIEGHVTNVSTVLNLRKEPRIGAEIINRLLNNTKVNILGKQGSWYKIELNGQKGYVYGMFLNEGTMKENSSKTIANKKSEVKSKDKKEKKSSVKKEAKKEVVSGVKAKVVQKQREEAKANMTSEAKPAINKDAKSNNKVEVKSEVKKEAKNEVKTEMNSSTKVETSQVVTSEMVQAVNTEVKSEKNQEANLQVRPEIKSEEKTEMISKENLNVIPEAKKEGISEEIKPEVNTEVESKPEMNKEVKAEEGKTAPEVKLEEKQEVKPVEASEEKVEVKKEEVQDPKAKEMDELLKSEEYKFLRMSISYGERLVDRNDVYTKDSLKILRTELEKAKKVFQDKDNLTMKLVQDTRDDLERAIVDLVKISDVKKPVKSKAKVEVKKESNTEKKQEVKEQPAKAEVIVPEVKENKEIKKEEPVKAKEVVKEKKSREEEIEEILKSEEYRFLLKDIAYGERLSEKITVYTRDSLKVLNAAIEKAGRIVRQKEKLTVKLVQDTRDDVDRAIVDLVKKNN”, the protein production result is “failed”.

Take “MRGVFLDKDKIPYDLVTKKLNEWYTSIKNDQVEQAEIIKTEVEKELLNMEENQDALLYYQLLEFRHEIMLSYMKSKEIEDLNNAYETIKEIEKQGQLTGMLEYYFYFFKGMYEFRRKELISAISAYRIAESKLSEVEDEIEKAEFFFKVSYVYYYMKQTYFSMNYANRALKIFREYEEYAVQTVRCQFIVAGNLIDSLEYERALEQFLKSLEISKESNIEHLIAMSHMNIGICYDELKEYKKASQHLILALEIFEKSKHSFLTKTLFTLTYVEAKQQNYNVALIYFRKGRFIADKSDDKEYSAKFKILEGLFFSDGETQLIKNAFSYLASRKMFADVENFSIEVADYFHEQGNLMLSNEYYRMSIEARRKIKKGEIIDENQPDSIGSSDFK”: the protein production result was “failed”.

In the case of “MKSLWSDADAAECVERLGLLGLPPELGLRTYSARLLGSNPKLVLHGGGNTSVKLNINDLFGNPVQVMCIKGSGQDLATITASGHPAVRLAPLQQLKVLDHLSDEDMVNILRTNLLDCRAPTPSVEALLHAFVDRPVIDHTHAVAAMVIADQPDGDRLCRYIYGERVLWIPYVMSGFALSLAVERAFRAYPDAEGMLLGKHGLCTFGESAKASYERMITFVTLAENFIESRRAIYSPPVITPPAKPNNLADMAHIAPYLRAAFARSSAISEKKHWIFDLRTDPKSLAFSSGLGTSDIAQRGVATPDHVIRMKGRPVVLDAPDLNNLGDWAAQTQTKIAAFVERYQHYFHRNNARFERGKIALDALPRAIVIPYLGVVGAGRTAEDAAINADIIESWLDVVTDATVCGDYEPIGEADEFDMEYWSLEQAKIDKASVKPLQGQIVVVTGAGGGIGAAIAKEFSLLGAELAVLDIDSESAKNVAAQLGPHALALQCDVTETASVQAAFETIATRFGGVDIVVSNAGVALSGAIAELPEATLRTSFEVNFFAHQRVAQQAVSIMKKQGIGGVLLFNISKQAINPGINFGAYGTSKAALLSLVRQYALEQGQDSIRVNAVNADRIRSGLLDDEMISLRARARGLSEEKYMAGNLLGQEVTAQDVAKAFVVSAMLDKSTGNVITVDGGNVAAMLR”, the protein production result is “failed”.

With “MTVPEEAQTLIGKHYRAPDHFLVGREKIREFAVAVKDDHPTHYSEPDAAAAGYPALVAPLTFLAIAGRRVQLEIFTKFNIPINIARVFHRDQKFRFHRPILANDKLYFDTYLDSVIESHGTVLAEIRSEVTDAEGKPVVTSVVTMLGLEHHHHHH”, the protein production result was “failed”.

Consider “MSEFIMNNLEQTARRWLEERGVTVEKIAELVYYLQSKYHPDLTMEECIENVNRVISKREVQNAILTGIQLDKLAEDGRLDEPLQSIIRRDEGLYGVDEILALSIVNVYGSIGFTNYGYIDKQKPGILQYLNDKSTGKCNTFLDDIVGAIAAAASSRLAHRAANAE”, for which the protein production result was “not failed”.

In the case of “MSTAMYHLRVPQTEEELERYYQFRWEMLRKPLHQPKGSERDGWDALAHHQMVVDEEGNLVAVGRLYINADNEASIRFMAVHPSVQDKGLGTLMAMTLESVARQEGVKRVTCSAREDAVEFFAKLGFVNQGEITTPTTTPIRHFLMIKPVASLDDILHRGDWCGQLQQAWYEHIPLSEKMGVRIQQYTGQKFITTMPETGNQNPHHTVFAGSLFSLATLTGWGLIWLMLRERHLGGTIILADAHIRYSKPISGKPNAVADLGSLSGDLDRLARGKKARVQLQVELLGGETAGAIFEGIYIVLPLEHHHHHH”, the protein production entry is given as “failed”.

Consider “MEDKKEYAKYAGFRIRFAAMLIDVVILVILFSIPVGFIYGQEYWQGEKLIYGFWDVLINYVIPAILTIFFWIKFLGTPGKMILKLRVVDEHTGGTLSIGKAIGRYFAYILSILPVFLGFFWIGFSDKKQGWHDILAGTVVIRSESKGPFEFRS”, for which the protein production entry was “failed”.

With “MMYPYVRLFMEMRRARRLDPLPVLGTHRSSHRCLPWDLAPWRELNNGRTLTLFDLGRAPLLVRTGMQRICSEKGWGMTVAGSSVRYRRRVVLMERLEMVSRCLGWDGRFFYMEQSLWRKGDCTSHMLLRAATTTGSGIVPPAEVAAALGAGESPPLPDWAQAWIEADALRPWPPAALEHHHHHH”, the protein production entry is given as “failed”.

For the sequence “SHMEIVPDTSVVIDGRVSDQVKADADPDTDVDGMGFAGATVVVPEAVVGELEAQANDGRETGWEGLEELQTLVDLAEEGTIDVEYVGRRPDAIEKREAGEGQIDALIRDIAGDRDATLVTSDDVQAEVARAKGLAVEFVDPVKRTVDRLQI”, the protein production entry was “not failed”.

With “MRNTFIVCWQYLRAFALIYLCLLAGNAVSALLPFTIPGSIIGMLVLFTLLASQILPAQWVKPGCYLLIRHMALLFVPIGVGVMNYYDLVNQQFGPIVVSCLISTFIVMLVVGFSTQIMQRERATAGDRTPPKDNE”, the protein production result is “failed”.

Take “MPDPQISAIICTHNRDTYLGAAIDSLLVQDFAGEFEVVVIDNGSSDRTREVVEQRSSDSRLKYVFEPTIGLSVARNTGAKFASAEILAYLDDDAVASTHWLQVLYAAYQNYPQLAIAGGKVTLLWPPDTQPPRWLSSGLAGNLGAYDLGDKVVYIQQPGLTPRGLNYSIRRTFLEEIGGFDPHLGRVGKNLLSNEELQMTELALTGGWQVAYLPEALVAHNVAPERLNRSWFLNRGWWQGISECYREQLSGKAGVGQLSRGGERLARGLYKAFRYFSNPAERFDNLVYAYGQIGYLNAVLQGLLFTANNKGSQLEHHHHHH”: the protein production result is listed as “not failed”.

“MSTLRATETHRASQSAWEVFLVFLRLGLTSFGGPVAHLGYFRDAFVTRRRWLTEHAYSDIVALCQFLPGPASSQVGMVVGLSRAGYPGALAAWVGFTLPSAIALILFALGLSHYGNLVPPSALHGLKVAAVAVVAQAVWGMARSLCPDAPRITLMILAAVAVTLIPSPWCQVGVMVVAGMVGAQRFRTAQVPPHEPLSIPVGHGAAIGFLLLFAGLLAGLPVVASLIPNHALALVDAFYRAGALVFGGGHVVLPLLQATVVPTGWVNNDTFLAGYGAAQAVPGPLFTFAAFLGAAGGPAPTGWIGGIVCLLAIFAPSFLLVFGALPFWERLRRHAGTRAALAGVNAAVVGLLLSALYQPVWTSAIHAPADFALALLALAALTVWRVPPWAVVTGCALAGWGMHVGGVA”: the protein production entry is on record as “failed”.

“MGHLSAPLHRVRVPWQGLLLTASLLTFWNPPTTAQLTTESMPFNVAEGKEVLLLVHNLPQQLFGYSWYKGERVDGNRQIVGYAIGTQQATPGPANSGRETIYPNASLLIQNVTQNDTGFYTLQVIKSDLVNEEATGQFHVYPELPKPSISSNNSNPVEDKDAVAFTCEPETQDTTYLWWINNQSLPVSPRLQLSNGNRTLTLLSVTRNDTGPYECEIQNPVSANRSDPVTLNVTYGPDTPTISPSDTYYRPGANLSLSCYAASNPPAQYSWLINGTFQQSTQELFIPNITVNNSGSYTCHANNSVTGCNRTTVKTIIVTELSPVVAKPQIKASKTTVTGDKDSVNLTCSTNDTGISIRWFFKNQSLPSSERMKLSQGNTTLSINPVKREDAGTYWCEVFNPISKNQSDPIMLNVNYNALPQENGLSPGAIAGIVIGVVALVALIAVALACFLHFGKTGRASDQRDLTEHKPSVSNHTQDHSNDPPNKMNEVTYSTLNFEAQQPTQPTSASPSLTATEIIYSEVKKQ”: the protein production result is listed as “failed”.

Consider “MKKIIAITGFAMLGGGLREGLSLLVTWPQHFWITCLINIVGAFVLSLITNLLPARLPVSEDIVIGMSVGFVGSFTTFSTFTFETLQSFQSGHSVLALSYVAASLGLGLLAGLAGNFLSTYWLPKEEF”, for which the protein production result is reported as “failed”.

On to “MSSNASTEKQHAGGEKTVKAEPQSTSSQKDSTDDYQPNSQVTDDRTLHKVGQTFSDDKGKAVLKDIKQVNKTYKIGDVELTVKEMKLIHLRPDYSMIDYFHELTHDEEFDFVKVFVDIKNTSTKKVNVAPIALMKTNTGETFDWNKDIYLEELNGELEGGAEKSGNLGFIVNASSGHAHDKAADAEKKTKEIKWIEITTSDVFDHNHKKISDAQKIKIKFLEHHHHHH”, for which the protein production result is on record as “not failed”.

“MGHHHHHHSHMTHSDKPYKCDRCQASFRYKGNLASHKTVHTGEKPYRCNICGAQFNRPANLKTHTRIHSGEKPY”: the protein production entry was “not failed”.

In the case of “MAVLYAGRPVQKCERSRLMFNIDQPDSAPDNEDHDGDVVMHGQGSFFGRRKGHKLRAHQADLIENLLPHLSLQIDSPAPEPLTTLFDPPVEHMRLEIGFGGGEHLIAEALAHPDTGFIGAEPYVNGMAKILARIEAENIRNIRLFAGDASELLAWVPAGSLARIDLIHPDPWPKRRHWKRRFVQDATVAAMARALTPHGEFRFVCDIDGYTAWTLAHLLRAPCFDWLAQRADDWRKPWPNYTMTRYGRKAEREGRRANYLRFERL”, the protein production result is listed as “failed”.
